{"source": "paper PMC6817362", "target": "Recombinant mouse SIGN-R1 Fc chimera protein, extracellular domain (mouse) (UniProt Q8CJ91)", "sequence (Q8CJ91 74-325, change not shown)": "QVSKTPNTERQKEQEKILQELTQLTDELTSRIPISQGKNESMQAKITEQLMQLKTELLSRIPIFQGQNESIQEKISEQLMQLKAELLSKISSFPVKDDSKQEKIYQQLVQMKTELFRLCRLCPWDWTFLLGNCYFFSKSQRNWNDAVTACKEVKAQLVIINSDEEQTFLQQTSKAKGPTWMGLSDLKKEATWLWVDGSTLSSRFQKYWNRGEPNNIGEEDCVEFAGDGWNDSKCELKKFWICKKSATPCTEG", "assay": "SPR", "data": [{"substance": "Hemagglutinin HA from Influenza A H1N1 (A/Puerto Rico/8/34) (from UniProt P03452) (natural protein)", "values": [{"measurement": "Kd", "result": 142, "unit": "nM"}]}]}
